This is an account of results in the nanobody polyreactivity screen of Harvey et al. (2022).

The data set is described as follows: yeast display, Sf9 membrane polyspecificity reagent, FACS + sequencing; frameworks hold sequencing errors. Summed up: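 Galactose-induced (36–48 hours) yeast carrying a synthetic nanobody display library were exposed to 10% biotinylated, detergent-solubilized Sf9 membrane reagent at 4 °C for 1 hour. FACS followed streptavidin microbead enrichment, using low and high (top ~1%) gates for expression (anti-HA) and reagent binding (streptavidin). Colony PCR, MiSeq 2 × 250 sequencing and CDR-length filtering followed. Labels for polyreactivity reflect the gate of origin.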
Turning to “QVQLVESGGGLVQAGGSLRLSCAASGSIFGRNAMGWSRQAPGNERELVARISYIGGSTYYADSVKARFTISRDNAKTTVYLQMNSLKPEDTAVYYCAKRYGFRYKRMDYWGQGTQVTVSS”, the “polyreactivity (PSR sort gate)” value was “low polyreactivity”.

As for “QVQLVESGGGLVQAGGSLRLSCAASGRIFGYYAMGWYRQAPGKERELVATITFGGGSTYYADSVKGRFTISRDNAKNTVYLQMNSLIPEDSAVYYCAADSGYLGIYGDEYSWGQGTQVTVSS”, the “polyreactivity (PSR sort gate)” value is on record as “low polyreactivity”. Consider “QVQLVESGGGLVQAGGSLRLSCAASVNIFESYGMGWYRQAPGKERELVATINTSSGSTYYADSVKGRFTISRDNAKNTVYLQMNSLKPEDTAVYYCSAEWYPYPWGYGYSGQGTQVTVSS”, for which the “polyreactivity (PSR sort gate)” value is on record as “low polyreactivity”. “QVQLEESGGGLVQAGGSLRLSCAASGYTVVLYAMGCDIQAPGKERELVAVISWSGGSTYYADSVKGRFTISRDNAKNTVYLQMNSLKPEDTAVYYCAVSRYYNDYWGQGTQVTVSS”: the “polyreactivity (PSR sort gate)” value is reported as “low polyreactivity”.

On to “QVQLVESGGGLVQAGGSLRLSCAASGRIFSFNTMGWYRQAPGKERELVAAITSSSARTYYADSVKGRFTISRDNAKNTVYLQMNSLKPEDTAVYYCAADSTLSRYDYWGQGTQVTVSS”, for which the “polyreactivity (PSR sort gate)” value is recorded as “high polyreactivity”. In the case of “QVQLVESGGGLVQAGGSLRLSCAASGYIFKWYAMGWYIQAPGKERELVAAITWSGDTTYYADSVKGRFTISRDNAQNTVYLQMNSLKPVDTAVYYCAVERDDQDYVYWGQGTQVTVSS” it was “low polyreactivity”; in that of “QVQHVESGGGLVQAGGSLRFSCAASGFIFIRNGMGWYRQAPGKERELVAAISARGGSTYYADSVKGRFTISRDNAKNTVYLQMNSLKPEDTALYYCAAYRPRKYDYWGQGTQVTVSS”, “high polyreactivity”. Take “QVQLVESGGGLVQAGGSLRLSCAASGRILNYNAMGWYRQAPGKERELVAAITSSGGSTYYADSVKGRFTISRDNAKNTVYLQMNSLKPEDTAVYYCNALITYSSDYWGQGTQVTVSS”: the “polyreactivity (PSR sort gate)” value was “low polyreactivity”.

On to “QVQLVESGGGLVQAGGSLRLSCAASGSTFVGKVMGWYRQAPGKERELVAAISRGGSTYYADSVKGRFTISRDNAKNTVYLQMNSLKPEDTAVYYCAADVRPWGNYHAQYDYWGQGTQVTVSS”, for which the “polyreactivity (PSR sort gate)” value is reported as “low polyreactivity”. On to “QVQLVETGGGLVQAGGSLRLSCAATGLIFYSYPMGWYRQAPGKERELVAALNGGGGSTYYADSVKGRFTISRDNAKNTVYLQMKSLKPEDTAVYYCAADLYNRGRGSSQSYRTGYDYWGQGTQVTVSS”, for which the “polyreactivity (PSR sort gate)” value is reported as “high polyreactivity”. In the case of “QVQLVESGGGLVQAGGILRLSCAASGFIFTYYAKGWYRQAPGKEMELVAAISWSGGSTYYADSVKGRFTISRDNAKNTVYLLMNSLKPEDTAVYYCAVDLHYSRGPRDAQYRYYYWGHGTQVTVSS” it was “high polyreactivity”; in that of “QVQLVESGGGLVQAGGSLRLSCAASGIIFFYNAMGWYRQAPGKERELVAAITIGGITYADSVKGRFTISRDNAKNTVYLQMNSLNPEDTAVYYCNKRTDSDSGHWEHDYWGQGTQVTVSS”, “low polyreactivity”. With “QVQLVESGGGLVQAGGSLRLSCAASGSIFYWYAMGWYRQAPGKERELVAAITWSGGSTYYADSVKGRFTISRDNAKNTVYLQMNSLKPEDTAVYYCNKVPYYGAYSSYDYWGQGTQVTVSS”, the “polyreactivity (PSR sort gate)” value is listed as “high polyreactivity”. As for “QVQLVESGGGLVQAGGSLRLSCAASGRILYTYAMGWYRQAPGKERELVASIRSSGGITYYADSVKGRFTISRDNAKNTVYLQMNSLKPEDTAVYYCNAPYLVGTGPNGEYDYWGQGTEVTVSS”, the “polyreactivity (PSR sort gate)” value was “high polyreactivity”. “QVQLVESGGGLVQSGGSLRLTCAASGFTFYDYDMGWYRQAPGKERELVATITWSVGRTYYADSVKGRFTISRDTAKNTVYLQMNSLKPEDTAVYYCAADEPDRDYGYWGQGTQVTVSS”: the “polyreactivity (PSR sort gate)” value is recorded as “low polyreactivity”.

With “QVQLVESGGGLVQAGVSLRLICAASGLTFQYNAMGWYRQAPGKEREMVASINSGGSTDYADSVKGRFTISRDNAKNTVYLQMNSLKPEDTAVYYCATSGYWYSASYGYEYWGQGTQVTVSS”, the “polyreactivity (PSR sort gate)” value is reported as “low polyreactivity”.
